Experimental data: the DeepSol protein solubility set

assay: soluble on expression in E. coli; label from the status in PepcDB or PDB records

Q: Which “soluble on expression in E. coli” value does the source give for “MGSDKIHHHHHHMNSTMQVLVIGGTGTLGRQIAKNAIDAGHKVRCMVRKPKAASFLQEWGCELTRGNLLNKEDIEYALDGIDAVIDAATSRPDDPRSVYETDWDGKLNLFNACEEKNVKRVVFLSLLAAEKYREIPLMDIKYCTEELLVSSSLDYTILQGVAFMQGAIGQFAIPILNNEPVWISGNPTDIAYMNTQDIARFAVAALDRPQTIKGRFPIVGPKAWSAKGLVDLCEKFSEKRARVLKVSPTIISIAQSVVSFFEPTLNVAERLSFSELSGSGGKLDAPMEDTYTAFGLNPADTTTMEGYIKEYYGVILKRLKDIGVDLDIEEKKKFPI” here?
A: not soluble

Q: Which “soluble on expression in E. coli” value does the source give for “MGSDKIHHHHHHMEPEILFRKIDDLGEGPTYDERRKRVYWVDIRGKKFHYLSLENSEMKTFQSIGMISSIVPTDRDLMAATVDHGLYLIDDAGKHTLLTEVEKDQKSTRFNDGKADPFGNYVAGTMDLEEKRPIGSLYVLTGKTIRRILENLTISNGIAWNTKKKVFYHIDTPKRRVDAYSYDGKMNIERLGTAVDFRNEVGNPDGMTIDADGNLWVAHWGGNRITIHDPERQKKIDEIIFPAQNITSCVFAGNGLRDLYVSSASNGNPDDMGGSLFVVHTDYAGSKTFTFSVP” here?
A: not soluble

Q: For “MCLNRVNEWVLEFNSRTKKLLIDLNKRLPGAKFSFADTYPAVLDLINNPTHYGFKIANTSCCNVDTSVGGLCLPNSKMCKNRQDFVFWDAFHPSDSANQILADHLFSSLLSSSSPSPAPKPRQ”, which “soluble on expression in E. coli” value is on record?
A: not soluble

Q: Which “soluble on expression in E. coli” value does the source give for “MGHHHHHHSHMDQRQRRILGQPLSIPTSQPKQKRTSMISFFSKVSWKLRFQKREPLKNVFFILAERARDPSAKKRHMAMRNLGTMAYEAPDKVRKYKKIVLDLLVYGLYDPVNLEVIHESMKTLTVVLGKIQGKGLGSFFIDIALQTRTLLDDENDSLRYSAFVLFGQLAAFAGRKWKKFFTSQVKQTRDSLLIHLQDRNPQVAKACKTTFQACSPYLKLKEEYSFQSEEDQRNTKLYQQLSHYHPEILQFFYANKIL” here?
A: not soluble

Q: With “SKARTVAGPVGGSLSVQCPYEKEHRTLNKYWCRPPQIFLCDKIVETKGSAGKRNGRVSIRDSPANLSFTVTLENLTEEDAGTYWCGVDTPWLQDFHDPVVEVEVSVFPAS” as the sequence, how does the “soluble on expression in E. coli” value read?
A: soluble

Q: For “MKILAFETSTEACSVALHVDGAVRERFELAPRRHAELALPWAEQLLAEAGISRRQLDAIAVGRGPGAFSGVRLAIGIVQGIALALDLPVLAISTLQVLALRAPAEASHVLACIDARMGEVYAGLFERQGEALLTLGSEVVCAPEAVLLPQSTPQWAGVGTGLAAGEMPLQQRFAGRLSSVDAAALPHAADLLTLALPAALRGEGVAPERVEPAYLRDNVALTLVEQQAARAAKAAAVPRLEHHHHHH”, which “soluble on expression in E. coli” value is on record?
A: not soluble

Q: With “MGSDKIHHHHHHMQILKTSDVPTGIVLLDRRLDGGLPAGSFVCVYANPLAMPEAFLYQFATVLKTYYFTTSRPAKFVKQDMEKLRLDTSFVTFVDVYEQYYLNEYGQFIVEDRYRDKEIFDYVDDRLSRIAEEESGEYNVIIDSLSFFLNLNTDWGLKDWLINKLYTLAKEKGVVVYCHLIKNLHPVDVVNKVLDISDVVFDIEVERVGERLVSKFAVPKLRGKRPVTEYFRFYVEEGIQVDTSRDIA” as the sequence, how does the “soluble on expression in E. coli” value read?
A: not soluble

Q: Which “soluble on expression in E. coli” value does the source give for “MGSDKIHHHHHHMKSCLYFTFIVLFLTACSTKNLTSLHRENLEQKNENQHYVKLEYEQNVNILPQFAYDINFDAKRYKKYFFNPWHDSFKNYKGQNIFWSFPLYLNSKNTYYFFNKQIIPLSWFKNAINNANIQEFGKLNQKALIIQNTIIKNLPTQRAILKNPFFENEGIPFDYASDGILNTGAPVLISHFSKDKRYAFVLGEAGFGFVESKNLEFFSNDRAKIYENLNFITPLKEKFAIYSEDGKFLFESRIGAIYPYYKEDKNYFYGKIGSKKYKISKKDVSKFPLQFNDKNLKNQLSQVLNLPYGWGGYNFERDCSLLTRDIFSAFGLYLPRNSAAQKNSFNHFDISTLSNSQKKDFLNRFGKAYLSLLYLPGHIMLYAGQITDNNIAIHNIWGLRKDATQRLLISSSVITSLEIGKNEILEDNLLLSRLKEISFINLNEQEKEQIKSYLENIQNK” here?
A: not soluble

Q: For “MVSRLARLARRVGRKLKALTPTPKTPEPPSLPLILDAPVAPGFTTAREVWCAPGFGVVVDAGGQVLGGAARQALGFSPDLAALPGVRVSDGGSRLILPEGAPRLARGAVVAGWGDLRNYAGFVLNTLPALVEASKAGVLADHPLVTPPLTRWQADLLTLAGLASPLINAAPWVVLDEAVLSPPPSPVATHAMLAEVRERVLATPGPASGARPKLYVSRADAMNAVMVDEEGVEIELAALGYTIVRPETSSTRELIGLFREAKVIVAPTGTVLANALFCAADAQIVEIRPPGANGLWVRDLAVLAGATWHGFDAPGEKEAPGAPLDPALPPASAFGWRADAAALLAFLAQRSLEHHHHHH”, which “soluble on expression in E. coli” value is on record?
A: not soluble

Q: For “MSLAQTQLSYKNKTYQISYEILGDLSLPQILILHGWGADKKLMKQSFCPFLKDFCQIYMDLAGFGNSSVEEILNTQDYANITELFLKQKKLNVCFFMGHSFGGKVSTLLAKEKDTLILLSSAGILAKKSLKVRFKIRIFKILKLFGLGKFYRYFASKDGANLSPIMYETFKKVVDEDFSEIFAKQKAKSLIFWGKSDEATPLYCGEKMHQFLKNSTFYPLEGDHFFFLKHSAFIAQKIKEEGHHHHHH”, which “soluble on expression in E. coli” value is on record?
A: soluble

Q: With “MAHHHHHHMKAVSIRQVSAIIILDNNGKRIAVKYYNDQAPLKGENKLVPKNTNKDLVSNAFENTYNNLRTVEDQKLFESDITEKARKLGGDSSETEVLVLNKFTILYLLINDVSIYIVGEESDNEIILHEIMQTVQQCLDNVTNNQIGKKQLLDKLDSIYLILDEIADSGIIMETNPNVIINRLYMHESDLQEHTPLNQAISSAKENIIRSLLSGT” as the sequence, how does the “soluble on expression in E. coli” value read?
A: not soluble

Q: For “MSLSPIAPYEIGYVHIDSCELCHADGKLVMFLAIDRVSKFTYVDFHDCAGKMEGAAFLRNVVEAFPYQIHIVLTDNGMAFADLPKNRNGPSRRFFGPHIFDRVCIEHGIEHRLTKPYHPWTNGQAERMNRTIKDATIKAYHYDDLESLKAHVLAFVTAYNFAKHLKALRWRTPYQAICDARTKDPSIFKIDPHHLTQGPHTLSEGHHHHHH”, which “soluble on expression in E. coli” value is on record?
A: not soluble

Q: For “MGSDKIHHHHHHMLLTDLVTPPDTALCAAAEEMARMASDPFLYNHVSRSYIFGALAARATGTQYDPELFYIAAMLHDLGLTETYMAEDRFEVDAAEAAAKFLAAQNVEQSRIDRVWDAIALHTTFSIPQKKSPEAALVQIGAGLDVGVMPHDHITPEVMEQVLDAYPRLGFKKAMEQALIKVYAAKPMTAMHNFGADVAHRHVPDFHPPHFCDVLHGADFPE”, which “soluble on expression in E. coli” value is on record?
A: not soluble

Q: With “MSLKKMMDSTTVIITTTDNRVLLQKRDENPDIEYSGYYSLVSGYLEEEETPLDGIIRELKEEFEHKKSQKVHFSSITYLGSEYRADYDRWEYIHHTYLMDDAADIRILEGESFVLLDMDECLRLENLAPHHKLFLLKYRAGLCKIDVREQSKKMFDEITVRDLIKVESVGDVKNYSLLEAGTGFVIGEDTTLSASIPAVEAAKYIGFLQFVPKVLRGNHYHFRKVEYMLILQGRMHATFQKYDDSEAVIEEIWEKGDLVRTLPGCVHTLTALGESNVLTIEFSPQPYVARDVLMNDKEGHHHHHH” as the sequence, how does the “soluble on expression in E. coli” value read?
A: soluble

Q: For “MSRAVRPYLVLATQRSGSTLLVESLRATGCAGEPQEFFQYLPSTGMAPQPREWFAGVDDDTILQLLDPLDPGTPDTATPVAWREHVRTSGRTPNGVWGGKLMWNQTALLQQRAAQLPDRSGDGLRAAIRDVIGNEPVFVHVHRPDVVSQAVSFWRAVQTQVWRGHPDPKRDSQAVYHAGAIAHIIRNLRDQENGWRAWFAEEGIDPIDIAYPVLWRNLTAIVASVLDAIGQDPKLAPAPMLERQANQRSDEWVDRYRAEAPRLGLPT”, which “soluble on expression in E. coli” value is on record?
A: soluble

Q: For “MGHHHHHHQQIMKGNFSSFMQKEIFEQPESVVNTMRGRVNFDDYTVNLGGLKDHIKEIQRCRRLILIACGTSYHAGVATRQVLEELTELPVMVELASDFLDRNTPVFRDDVCFFLSQSGETADTLMGLRYCKERGALTVGITNTVGSSISRETDCGVHINAGPEIGVASTKAYTSQFVSLVMFALMMCDDRISMQERRKEIMLGLKRLPDLIKEVLSMDDEIQKLATELYHQKSVLIMGRGYHYATCLEGALKIKEITYMHSEGILAGELKHGPLALVDKLMPVIMIIMRDHTYAKCQNALQQVVARQGRPVVICDKEDTETIKNTKRTIKVPHSVDCLQGILSVIPLQLLAFHLAVLRGYDVDFPRNLAKSVTVE”, which “soluble on expression in E. coli” value is on record?
A: soluble

Q: Which “soluble on expression in E. coli” value does the source give for “MRKRLITVKNLFEYVQENELVIQADMIITPGAKDIIRDKGIGVKYEKCCCESESKMKNEIKKDCQNFEKKVIDIITKEFKITDSETVQKILSKLKELL” here?
A: not soluble

Q: For “MRITDLLSKDVMIMSLQATTKEAAIDEMIASLKSNGKINDEVLFKEAIMNREAQSSTGVGEGIAMPHAKTKAVNEPTVVFAKSEKGLDYNSLDGQPAHLFFMIAAPDGANATHLETLAALSRLLVHPAFVQSLKDAKTPDDVITLFNNEQGDAEE”, which “soluble on expression in E. coli” value is on record?
A: not soluble

Q: With “MKMDYILSDFAQKQGYAVESYEIVDSTNYIAQQKAHAGHHGYLWVVAKEQSQGRARRGRTWSSPKGNLYSSLLLVEDIVHQTAAQLGFVAGVSVVETIKQFIKDEKQTSDIVSLKWPNDILLRGAKSSGILLEIFKLPSQQYALVIGIGINVKYHYEDAPYPTSSLKNIGLDIETEQLFTVLTEYFSKNYLLWKQLGGCDRIREKWLLYSAHSGQYVKIVNDEKIIEGIFDGLDNDFNCVIKQKNGQQAVITAGDVHFGSSASVNAGCY” as the sequence, how does the “soluble on expression in E. coli” value read?
A: not soluble

Q: For “MLKIISGKYRNQIIPTAKNIKYRPSTGKLKEAIFSILTSGEFTGNKLFNENTHILDLFAGSGSLAFESLSRGAGFATLIDIDTSSLKIAEGFAKSLNIENNVNFVNINALNLPKATRHLFKPAYREGSKGDTEHSTAAYTLVREDASTGSTFKLPLEAKFGKMSNKSFDLVFIDPPYHKNIVPKVMKLLIKNNWLKDGAIIVIEMAKTDDYILDENIEIIREKLYGKSKLLVLSFTVIPAKAGIQ”, which “soluble on expression in E. coli” value is on record?
A: not soluble

Q: For “GSHMQTPKETLSERLSALQDKIIDHYENDSKDIDSQIQYWQLIRWENAIFFAAREHGIQTLNHQVVPAYNISKSKAHKAIELQMALQGLAQSAYKTEDWTLQDTCEELWNTEPTHCFKKGGQTVQVYFDGNKDNCMTYVAWDSVYYMTDAGTWDKTATCVSHRGLYYVKEGYNTFYIEFKSECEKYGNTGTWEVHFGNNVIDCNDSMCSTSDDTVSAT”, which “soluble on expression in E. coli” value is on record?
A: soluble

Q: For “MGGEGPGSDDIVKKMAQLMMQGAVMLDKTCPADGLPLFKLKTGDVVCPVHGKVVIVASDEEARDVEVEEIIREVRYRAARNVMKGLEEDNVDTVSKWLGVLETAERILAIRRGSRQGQGSVRGEGRESK”, which “soluble on expression in E. coli” value is on record?
A: not soluble

Q: Which “soluble on expression in E. coli” value does the source give for “MGSDKIHHHHHHMRVTADEGLYGEEATQGTEFRFHCETLFSRSSLHRFEIGLHRHSAFLQILYIFGGEGDALLEGRIEPIRPPVAIIVPPGFEHGFRFSRDIGGVIVTMLPGALPASVQALLLRNFQQPVLLRLRDFAEKDGLRSGFERISAEYEAREIGRDAMIEGQLATVVTLLSRAARPLLETSGEGLAEQRFERLLSLIARHIREPQKAGFYAGKLGLSETHLNRLVRSVSGLSLQRLIAKRQIEIAQQELIFTVSSVQMIAEGLGFADPAYFNRFFKRETGMTPRAWRLAEQRKMGDTGARLTPPQTSILASSR” here?
A: not soluble

Q: Which “soluble on expression in E. coli” value does the source give for “MAAQATAETPAGELPVIDAVTTHAPEVPPAIDRDYPAKVRVKMETVEKTMKMDDGVEYRYWTFDGDVPGRMIRVREGDTVEVEFSNNPSSTVPHNVDFHAATGQGGGAAATFTAPGRTSTFSFKALQPGLYIYHCAVAPVGMHIANGMYGLILVEPKEGLPKVDKEFYIVQGDFYTKGKKGAQGLQPFDMDKAVAEQPEYVVFNGHVGALTGDNALKAKAGETVRMYVGNGGPNLVSSFHVIGEIFDKVYVEGGKLINENVQSTIVPAGGSAIVEFKVDIPGNYTLVDHSIFRAFNKGALGQLKVEGAENPEIMTQKLSDTAYAVPR” here?
A: soluble
